One molecule from EP4778588A2, “ENZYMATICALLY CLEAVABLE LINKER AND LIGAND-ERIBULIN CONJUGATE CONTAINING SAME” (priority 2022, dated 2024) can be followed below.

The assay concerns KATO III cell line (human gastric cancer cells). Briefly: Cell viability test (same method as for Calu-6) in KATO III cells. The conditions noted are these: average DAR of 2 to 3, read-out: EC/IC50 values for cell viability. The class given is cell-based. On the procedure: Human Calu-6 cells (manufacturer: Procell, product code: CL-327, human lung cancer cells) were resuscitated and seeded into a 96-well culture plate. The culture medium used was DMEM/F12 (manufacturer: Hyclone, product code: SH30023.01), supplemented with 10% FBS (manufacturer: Gibco, product code: 10099141). Each well contained 2,500 cells in 150 µl of medium. The plate was incubated at 37°C in a 5% CO2 incubator. Approximately 20 hours later, 50 µl of medium containing different antibody-drug conjugates were added to each well, setting the final drug concentrations at 0 to 100 nM across 12 dilution gradients (initial concentration: 100 nM; subsequent 5-fold serial dilutions across 10 gradients; last gradient containing no drug, and each sample was tested in duplicate wells). […] After a 2-minute reaction, fluorescence intensity was measured using a Tecan Spark instrument, following the reagent kit's recommended protocol. […] EC/IC50 values were calculated using four-parameter fitting.
Further, following the above examples, antibody-drug conjugates (ADCs) of Trastuzumab and Bemarituzumab conjugated with the linker-toxin MC-VAGGFG-PAB-Eribulin were prepared for validation. […] Activity was measured using the SK-BR-3 cell line (human breast cancer cells) and KATO III cell line (human gastric cancer cells).

B1: Bemarituzumab MC-VAGGFG-PAB-Eribulin: Bemarituzumab conjugated with the linker-toxin MC-VAGGFG-PAB-Eribulin (conjugate, chains of the INN, looked up)
VH: QVQLVQSGAEVKKPGSSVKVSCKASGYIFTTYNVHWVRQAPGQGLEWIGSIYPDNGDTSYNQNFKGRATITADKSTSTAYMELSSLRSEDTAVYYCARGDFAYWGQGTLVTVSS
VL: DIQMTQSPSSLSASVGDRVTITCKASQGVSNDVAWYQQKPGKAPKLLIYSASYRYTGVPSRFSGSGSGTDFTFTISSLQPEDIATYYCQQHSTTPYTFGQGTKLEIK
modifications: MC-VAGGFG-PAB-Eribulin
As for B1, the IC50 stood at 0.097 nM.
